Assay results as given in the supplement of paper PMC9876800.

System: peptide library, one residue held at a place counted from the S/T acceptor
Test: relative phosphorylation of the sub-library (ratio to the mean residue at this position); higher = residue favoured
Conditions: human
Method in brief: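 Relative sub-library phosphorylation, a ratio to the mean residue at that position, was obtained by phosphorimaging and densitometry of spots on streptavidin membranes. Before capture, purified recombinant kinases were incubated for 90 min under kinase-specific conditions with 50 μM biotinylated degenerate peptide sub-libraries and 50 μM ATP spiked with γ-32P-ATP. Each sub-library fixed one residue at one position around a central Ser/Thr.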

Chain of CDK18, construct: Full length (Q07002 whole entry, looked up): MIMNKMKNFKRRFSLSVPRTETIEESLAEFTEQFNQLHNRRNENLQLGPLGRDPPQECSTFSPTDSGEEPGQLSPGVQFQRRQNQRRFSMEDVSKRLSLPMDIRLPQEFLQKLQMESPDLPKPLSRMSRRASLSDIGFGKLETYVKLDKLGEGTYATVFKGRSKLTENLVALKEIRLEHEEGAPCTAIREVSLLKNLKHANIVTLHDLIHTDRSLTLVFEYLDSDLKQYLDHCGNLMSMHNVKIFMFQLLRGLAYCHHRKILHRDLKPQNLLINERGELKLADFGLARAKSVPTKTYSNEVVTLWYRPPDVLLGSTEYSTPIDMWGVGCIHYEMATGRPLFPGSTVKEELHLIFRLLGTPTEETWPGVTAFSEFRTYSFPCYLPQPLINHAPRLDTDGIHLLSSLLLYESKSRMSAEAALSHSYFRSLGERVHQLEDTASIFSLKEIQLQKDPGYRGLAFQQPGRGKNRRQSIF
Chain of ATM, construct: Full length (Q13315 whole entry, looked up): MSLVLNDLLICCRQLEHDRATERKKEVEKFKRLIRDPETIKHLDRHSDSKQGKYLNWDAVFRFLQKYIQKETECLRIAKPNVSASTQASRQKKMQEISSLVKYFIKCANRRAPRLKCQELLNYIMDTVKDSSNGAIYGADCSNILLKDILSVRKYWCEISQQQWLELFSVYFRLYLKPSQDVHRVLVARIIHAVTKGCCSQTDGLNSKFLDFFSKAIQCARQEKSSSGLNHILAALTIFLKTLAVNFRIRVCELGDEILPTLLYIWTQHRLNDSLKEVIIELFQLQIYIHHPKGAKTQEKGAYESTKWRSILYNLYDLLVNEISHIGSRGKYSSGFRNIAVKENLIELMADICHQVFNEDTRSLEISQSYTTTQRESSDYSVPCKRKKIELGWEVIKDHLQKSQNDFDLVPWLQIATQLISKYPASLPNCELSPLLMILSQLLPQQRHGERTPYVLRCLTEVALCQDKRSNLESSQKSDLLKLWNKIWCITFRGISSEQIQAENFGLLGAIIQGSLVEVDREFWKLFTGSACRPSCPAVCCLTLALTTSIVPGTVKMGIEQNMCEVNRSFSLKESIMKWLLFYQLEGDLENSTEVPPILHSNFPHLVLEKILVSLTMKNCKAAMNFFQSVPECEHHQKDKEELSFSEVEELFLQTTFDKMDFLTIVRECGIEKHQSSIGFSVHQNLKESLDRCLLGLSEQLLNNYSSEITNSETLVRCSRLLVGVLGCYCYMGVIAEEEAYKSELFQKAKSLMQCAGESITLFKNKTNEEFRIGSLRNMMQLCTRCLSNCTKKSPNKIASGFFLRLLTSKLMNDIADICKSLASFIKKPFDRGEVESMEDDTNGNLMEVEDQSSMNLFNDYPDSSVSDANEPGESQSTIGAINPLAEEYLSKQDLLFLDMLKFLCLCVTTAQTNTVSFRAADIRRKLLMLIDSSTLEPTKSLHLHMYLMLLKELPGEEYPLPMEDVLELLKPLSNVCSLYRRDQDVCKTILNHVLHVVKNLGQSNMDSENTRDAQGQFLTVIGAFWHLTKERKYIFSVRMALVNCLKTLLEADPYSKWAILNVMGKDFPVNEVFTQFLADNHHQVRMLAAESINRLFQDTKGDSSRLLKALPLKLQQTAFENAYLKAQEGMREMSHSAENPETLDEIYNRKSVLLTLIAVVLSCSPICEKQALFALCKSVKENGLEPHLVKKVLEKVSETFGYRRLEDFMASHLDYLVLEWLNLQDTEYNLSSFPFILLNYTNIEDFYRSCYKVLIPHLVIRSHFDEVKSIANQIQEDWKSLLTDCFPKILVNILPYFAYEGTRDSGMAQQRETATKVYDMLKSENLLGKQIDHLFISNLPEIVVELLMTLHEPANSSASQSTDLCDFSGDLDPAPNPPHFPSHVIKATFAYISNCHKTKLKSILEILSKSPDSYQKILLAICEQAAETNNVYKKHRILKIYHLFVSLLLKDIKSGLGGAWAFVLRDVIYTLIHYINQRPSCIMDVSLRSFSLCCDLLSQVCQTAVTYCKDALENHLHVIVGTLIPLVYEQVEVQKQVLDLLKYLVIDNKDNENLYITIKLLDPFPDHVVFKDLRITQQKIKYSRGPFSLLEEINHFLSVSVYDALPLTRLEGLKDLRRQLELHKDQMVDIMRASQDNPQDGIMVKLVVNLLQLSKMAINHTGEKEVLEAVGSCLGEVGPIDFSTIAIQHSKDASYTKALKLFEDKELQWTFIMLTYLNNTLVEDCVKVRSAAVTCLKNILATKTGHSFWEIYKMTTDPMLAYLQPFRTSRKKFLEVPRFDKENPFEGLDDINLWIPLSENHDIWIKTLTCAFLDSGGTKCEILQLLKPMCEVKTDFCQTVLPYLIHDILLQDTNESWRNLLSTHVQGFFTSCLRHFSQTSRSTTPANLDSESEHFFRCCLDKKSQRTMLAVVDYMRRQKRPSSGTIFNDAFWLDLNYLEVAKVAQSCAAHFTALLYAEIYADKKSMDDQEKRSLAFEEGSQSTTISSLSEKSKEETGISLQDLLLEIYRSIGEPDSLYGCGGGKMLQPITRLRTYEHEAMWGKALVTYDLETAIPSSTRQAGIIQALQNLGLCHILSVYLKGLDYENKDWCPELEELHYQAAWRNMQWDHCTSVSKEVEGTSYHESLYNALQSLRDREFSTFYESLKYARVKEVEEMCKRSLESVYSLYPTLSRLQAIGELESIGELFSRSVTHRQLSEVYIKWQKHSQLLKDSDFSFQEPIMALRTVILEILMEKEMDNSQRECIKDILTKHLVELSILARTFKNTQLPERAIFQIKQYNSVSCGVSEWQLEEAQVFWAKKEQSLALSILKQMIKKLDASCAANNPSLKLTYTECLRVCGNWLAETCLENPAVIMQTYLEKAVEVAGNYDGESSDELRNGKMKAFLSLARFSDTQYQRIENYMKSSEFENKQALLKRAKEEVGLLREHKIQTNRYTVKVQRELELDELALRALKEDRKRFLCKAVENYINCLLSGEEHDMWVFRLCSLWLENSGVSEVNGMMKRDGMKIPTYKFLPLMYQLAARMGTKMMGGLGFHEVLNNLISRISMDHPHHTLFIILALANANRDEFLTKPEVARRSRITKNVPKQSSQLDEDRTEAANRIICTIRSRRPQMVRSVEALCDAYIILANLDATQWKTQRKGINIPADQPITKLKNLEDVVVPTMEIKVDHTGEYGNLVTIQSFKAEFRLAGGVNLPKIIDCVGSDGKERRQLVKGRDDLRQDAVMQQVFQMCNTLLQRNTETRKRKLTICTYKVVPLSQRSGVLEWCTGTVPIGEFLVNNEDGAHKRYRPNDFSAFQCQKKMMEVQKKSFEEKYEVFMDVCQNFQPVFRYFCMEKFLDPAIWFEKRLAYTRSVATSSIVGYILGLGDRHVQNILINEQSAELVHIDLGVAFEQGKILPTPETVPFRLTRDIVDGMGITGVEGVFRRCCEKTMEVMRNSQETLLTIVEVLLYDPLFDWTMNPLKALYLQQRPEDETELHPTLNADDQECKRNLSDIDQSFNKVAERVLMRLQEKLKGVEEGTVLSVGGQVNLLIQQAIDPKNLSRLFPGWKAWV
Chain of ACVR1, construct: aa175-end (Q04771 175-509, looked up): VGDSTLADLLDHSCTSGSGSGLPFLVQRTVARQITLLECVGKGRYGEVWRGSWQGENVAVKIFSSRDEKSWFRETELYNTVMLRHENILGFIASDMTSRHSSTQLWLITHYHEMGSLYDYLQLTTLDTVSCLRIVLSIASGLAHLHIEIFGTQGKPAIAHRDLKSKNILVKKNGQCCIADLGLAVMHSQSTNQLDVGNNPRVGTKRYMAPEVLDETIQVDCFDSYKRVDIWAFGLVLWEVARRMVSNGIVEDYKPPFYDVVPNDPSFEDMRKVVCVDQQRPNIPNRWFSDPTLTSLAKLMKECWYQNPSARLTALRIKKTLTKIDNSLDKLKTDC

ACVR1, construct: aa175-end (from UniProt Q04771)
relative phosphorylation
Conditions | at +1 | at +2 | at +3 | at +4 | at -1 | at -2 | at -3 | at -4 | at -5
A fixed | 0.713 | 0.98 | 0.912 | 0.81 | 0.74 | 0.525 | 0.897 | 0.886 | 1.13
D fixed | 1.5 | 1.84 | 1.47 | 1.69 | 1.48 | 1.93 | 1.51 | 1.64 | 1.22
E fixed | 4.11 | 1.99 | 1.81 | 1.76 | 1.68 | 6.6 | 1.78 | 1.44 | 1.15
F fixed | 0.752 | 0.713 | 0.962 | 1.01 | 0.857 | 0.467 | 0.944 | 0.88 | 1.08
G fixed | 0.737 | 1.39 | 0.909 | 0.972 | 0.515 | 0.715 | 1.22 | 1.15 | 1.12
H fixed | 0.787 | 1.15 | 0.932 | 0.918 | 1.04 | 0.55 | 1.03 | 0.953 | 1.03
I fixed | 0.87 | 0.581 | 0.762 | 0.804 | 0.985 | 0.511 | 0.885 | 0.946 | 0.896
K fixed | 0.382 | 0.709 | 0.53 | 0.676 | 0.572 | 0.406 | 0.651 | 0.77 | 0.938
L fixed | 0.728 | 0.616 | 0.856 | 0.738 | 1.35 | 0.678 | 0.899 | 0.958 | 0.861
M fixed | 0.795 | 0.683 | 0.97 | 0.955 | 1.62 | 0.89 | 1.02 | 0.94 | 0.964
N fixed | 0.771 | 0.927 | 1.04 | 1.01 | 1 | 0.714 | 1.12 | 0.803 | 0.948
P fixed | 0.375 | 1.02 | 1.1 | 0.976 | 0.49 | 0.404 | 0.937 | 0.872 | 0.91
Q fixed | 0.726 | 0.876 | 0.857 | 1.01 | 0.846 | 0.739 | 0.775 | 0.791 | 0.739
R fixed | 0.453 | 0.868 | 0.647 | 0.714 | 0.673 | 0.531 | 0.781 | 0.769 | 0.902
V fixed | 1.19 | 0.638 | 0.847 | 0.783 | 0.975 | 0.462 | 0.732 | 0.834 | 0.954
W fixed | 1.04 | 0.82 | 1.26 | 1.26 | 0.903 | 0.458 | 0.864 | 1.23 | 1.18
Y fixed | 1.07 | 1.19 | 1.14 | 0.927 | 1.27 | 0.429 | 0.972 | 1.15 | 0.997
pThr fixed | 2.36 | 1.57 | 1.05 | 1.59 | 1.04 | 1.8 | 1.41 | 1.05 | 1.06
pTyr fixed | 2.25 | 1.4 | 1.32 | 1.25 | 1.37 | 0.678 | 1.37 | 1.22 | 1.17

ATM, construct: Full length (from UniProt Q13315)
relative phosphorylation
Conditions | at +1 | at +2 | at +3 | at +4 | at -1 | at -2 | at -3 | at -4 | at -5
A fixed | 0.429 | 0.858 | 0.748 | 0.776 | 0.759 | 1.18 | 0.922 | 0.959 | 1.1
D fixed | 0.42 | 2.02 | 1.28 | 1.27 | 2.27 | 1.56 | 1.26 | 1.3 | 1.11
E fixed | 0.85 | 2.16 | 1.45 | 1.45 | 1.62 | 1.77 | 1.52 | 1.5 | 1.08
F fixed | 0.701 | 0.658 | 1.5 | 1.23 | 1.1 | 0.868 | 1.14 | 1.2 | 1.4
G fixed | 0.361 | 0.756 | 0.691 | 0.922 | 1.06 | 0.93 | 0.848 | 0.995 | 0.987
H fixed | 0.38 | 0.918 | 0.67 | 0.84 | 1.09 | 0.936 | 0.936 | 0.912 | 0.879
I fixed | 0.594 | 0.872 | 1.03 | 1.08 | 0.405 | 0.685 | 0.814 | 0.906 | 1.06
K fixed | 0.384 | 0.649 | 0.5 | 0.499 | 0.376 | 0.696 | 0.681 | 0.721 | 0.662
L fixed | 0.621 | 0.77 | 1.59 | 1.11 | 1.56 | 0.692 | 0.867 | 0.96 | 0.987
M fixed | 0.672 | 0.787 | 1.26 | 1.25 | 1.05 | 0.85 | 1.18 | 0.995 | 0.971
N fixed | 0.748 | 1.21 | 0.742 | 0.791 | 1.83 | 1.24 | 0.842 | 0.789 | 0.859
P fixed | 0.448 | 1.1 | 0.742 | 0.779 | 0.412 | 0.906 | 0.643 | 0.819 | 0.784
Q fixed | 8.34 | 1.1 | 0.989 | 0.787 | 0.731 | 1.28 | 0.792 | 0.733 | 0.617
R fixed | 0.648 | 0.839 | 0.545 | 0.577 | 0.518 | 1.13 | 1.66 | 0.865 | 0.894
V fixed | 0.521 | 1.01 | 0.875 | 0.873 | 0.387 | 0.716 | 0.671 | 0.818 | 1.1
W fixed | 0.421 | 0.514 | 1.31 | 1.51 | 0.525 | 0.736 | 1.06 | 1.27 | 1.26
Y fixed | 0.466 | 0.798 | 1.08 | 1.25 | 1.31 | 0.823 | 1.17 | 1.25 | 1.25
pThr fixed | 0.577 | 1.47 | 0.933 | 1.49 | 0.748 | 1.37 | 1.15 | 1.21 | 0.84
pTyr fixed | 0.468 | 1.85 | 1.26 | 2.74 | 3.86 | 1.68 | 1.7 | 1.23 | 1.05

CDK18, construct: Full length (from UniProt Q07002)
relative phosphorylation
Conditions | at +1 | at +2 | at +3 | at +4 | at -1 | at -2 | at -3 | at -4 | at -5
A fixed | 0.339 | 0.788 | 1.01 | 1.29 | 1.11 | 1.37 | 1.15 | 1.33 | 1.04
D fixed | 0.148 | 0.632 | 0.364 | 0.521 | 0.489 | 0.384 | 0.605 | 0.835 | 0.919
E fixed | 0.127 | 0.377 | 0.292 | 0.355 | 0.348 | 0.463 | 0.719 | 0.823 | 0.831
F fixed | 0.196 | 0.581 | 1.03 | 0.759 | 0.57 | 0.705 | 0.539 | 0.696 | 0.844
G fixed | 1.13 | 0.837 | 0.922 | 2.23 | 2.13 | 1.11 | 2.12 | 1.24 | 1.15
H fixed | 0.274 | 1.23 | 0.695 | 1.21 | 0.987 | 0.807 | 1.05 | 1.02 | 1.37
I fixed | 0.178 | 0.705 | 1.03 | 0.634 | 0.247 | 0.72 | 0.569 | 0.788 | 0.804
K fixed | 0.316 | 2.28 | 0.862 | 1.33 | 1.67 | 0.671 | 0.937 | 1.48 | 1.53
L fixed | 0.199 | 0.877 | 2.5 | 0.581 | 0.561 | 0.963 | 0.589 | 1 | 1.16
M fixed | 0.196 | 0.901 | 1.46 | 0.699 | 0.934 | 0.887 | 0.648 | 0.718 | 0.799
N fixed | 0.239 | 1.11 | 0.806 | 1.16 | 1.02 | 0.777 | 1.06 | 1.27 | 1.12
P fixed | 12.4 | 0.972 | 2.05 | 0.831 | 1.71 | 3.93 | 2.29 | 1.43 | 1.12
Q fixed | 0.279 | 1.06 | 1.03 | 0.969 | 1.13 | 0.999 | 1.03 | 1.01 | 0.77
R fixed | 0.281 | 2.23 | 0.719 | 1.79 | 1.9 | 0.94 | 1.33 | 0.941 | 0.827
V fixed | 0.263 | 0.744 | 1.04 | 0.703 | 0.379 | 0.852 | 0.768 | 0.596 | 0.677
W fixed | 0.236 | 0.782 | 0.703 | 1.09 | 0.911 | 0.886 | 0.852 | 1.05 | 1.12
Y fixed | 0.184 | 0.887 | 0.498 | 0.845 | 0.914 | 0.543 | 0.748 | 0.765 | 0.911
pThr fixed | 0.415 | 0.681 | 0.949 | 0.372 | 0.316 | 0.823 | 0.982 | 0.951 | 0.78
pTyr fixed | 0.508 | 0.48 | 0.815 | 0.591 | 0.341 | 0.572 | 0.943 | 0.82 | 1.07
